How the values were obtained:
HeLa cells = assay: Flow cytometry uptake of AF488-labeled NSa1(+10) proteins in HeLa cells; assay type: cell-based; settings: for percentage of fluorescent cells / MFI(R-1) Trial 1 / MFI(R-1) Trial 2 / MFI(R-1) Trial 3: 4 hours; for MFI(R-1) Trial 1 / MFI(R-1) Trial 2 / MFI(R-1) Trial 3: Protein 500 nM, 37°C
Method: (§1) To assess cellular uptake of the supercharged NSa1 proteins, we first removed the N-terminal His-tag after TEV cleavage to obtain two intact NSa1(+10) mutants encoding either BocK or CATK-1. We then reacted the mutants with Alexa Fluor 488-NHS modest labeling yield of 20-23% (FIG. 22). We then carried out a flow cytometry assay to quantify the uptake efficiency of the NSa1(+10) mutants. In brief, HeLa cells were treated with 100 or 500 nM of NSa1(+10) proteins at 37° C. for 4 hours. After washing cells three times with PBS containing 20 U/mL heparin to remove the surface-bound proteins, cells were collected and analyzed by flow cytometry. We observed significant monobody uptake when protein concentrations reached 500 nM. […] Since the kinetically stable protein folds show enhanced proteolytic resistance due to their rigid conformations with limited local openings, we assessed the effect of orthogonal crosslinking on proteolytic stability of the monobody. Thus, we incubated the CATK-1-crosslinked NSa1(+10) with cathepsin B ¾ an enzyme responsible for the degradation of protein cargoes in the endosomes ¾ and monitored monobody stability by mass spectrometry.
Fluorescent labeling of NSa1 and flow cytometry. After TEV-cleavage and further cation exchange chromatography, the purified NSa1 proteins were buffer exchanged into the basic buffer (100 mM Pi, 450 mM NaCl, pH 8.3), and then incubated with AF488-NHS (Lumiprobe) (2-fold molar, optimized to afford non-labeled and mono-labeled protein as major species) at 4° C. with gentle shaking in darkness overnight. Then, thorough dialysis was employed to remove excess dye and protein concentrations were determined by Nanodrop (eNSa1=28880 M^−1 cm^−1, eNSa1-plus10=27390 M^−1 cm^−1; CF280=0.11; Aprotein=A280−A493*CF280).
HeLa cells were seeded in a 48-well plate and grown in DMEM supplemented with 10% FBS and 10 μg/mL Gentamycin (Gibco) and 2 μg/mL Plasmocin at 37° C., 5% CO2 until ˜80% confluency. Cells were washed twice with pre-warmed PBS before switching to serum-free DMEM with Alexa-488 labeled protein. Cells were incubated at 37° C. for 4 hours. The cells were washed three times with PBS (including 20 U/mL heparin), trypsinized, and collected with 1.5 mL tubes. After brief centrifugation (400 g, 5 min) at room temperature, cells were collected and resuspended in PBS for flow cytometry analysis.

[1] = Intramolecular (inter-strand) crosslinking yield of nanobody/monobodies by mass spectrometry; settings: UAA-encoded monobodies, MS characterization (Table 5)
Excerpt: To probe whether CATK-1 is suitable for inter-strand cross-linking in proteins containing the disulfide bond, we selected a small protein called nanobody NB1, a prototypical single-chain VHH antibody that binds specifically to GFP protein. Based on NB1 structure, there is one disulfide bond formed between Cys-24 and Cys-98, close to a proposed orthogonal crosslinking site at Val-4 and Tyr-106 (FIG. 5a, left). To test orthogonal crosslinking, we placed CATK-1 at Val-4 position to target Tyr-106 located 5.6 Å away on the opposing strand. The BocK- and CATK-1-encoded NB1 were successfully expressed at yields of 14.3 mg L^−1 and 3.5 mg L^−1, respectively (FIG. 5b, left). […] Separately, we also examined the utility of CATK-1 in effecting intramolecular crosslinking in an antibody mimic called monobody. Due to their lack of cysteine residues, small size (˜10 kDa), and evolvable binding affinity and specificity, monobodies represent an ideal protein scaffold for targeting protein-protein interactions in the cytosols of mammalian cells. However, monobodies are cell impermeable, severely limiting their potential. One strategy to potentially overcome this limitation is to combine protein surface supercharging with orthogonal crosslinking to increase stability in the endosomes and thus improve cytosolic delivery. To this end, we designed an overall +10 charged monobody NSa1, termed NSa1(+10), using the Supercharge protocol on ROSIE Rosetta Online Server and added an amber codon at Ala-13 position. Based on the NSa1 structure, A13CATK-1 is well-positioned to react with the proximal Tyr-92 on the opposing strand at C-terminus (FIG. 5a, right). Accordingly, the wild-type and NSa1(+10) mutant proteins encoding CATK-1 or BocK were expressed and purified in good yields (4.1-6.9 mg L^1; FIG. 5b, right). […] The crosslink-containing fragment was identified by LC/MS after trypsin digestion (FIG. 21).
To assess if BeLaK is suitable for orthogonal crosslinking of domain antibodies, we selected NSa1, a monobody-based SHP2 inhibitor, and placed BeLaK at position-13 of the N-terminal β-strand. A panel of supercharged NSa1 mutants carrying overall charges of +6, +8, +11, and +18, respectively, were designed using Supercharge protocol on ROSIE Rosetta Online Server with native NSa1 (˜2 charge) as a template. […] Thus, the supercharged monobodies encoding either BeLaK or BocK were expressed in good yields (2.2˜7.2 mg L^−1; FIG. 42). […] Furthermore, as the positive charge increases, the mobility decreases, likely due to reduced overall negative charge after association with the SDS molecules. MS analysis further confirmed the identities of the supercharged NSa1 mutants (FIG. 34c). Since the unreacted BeLaK-encoded monobodies share the same mass as the crosslinked ones, we treated the purified monobodies with excess β-mercapto-ethanol for 7 days, which accelerates the hydrolysis of the unreacted β-lactam and in turn adds +18 Da to protein mass, and monitored the intact mass change. Using this method, we determined orthogonal crosslinking yields to range from 5% for native NSa1 to more than 50% for +8/+11/+18 mutants (FIG. 42). We attribute the higher yields to the increased conformational dynamics, which promotes proximity-driven crosslinking reactions. The crosslinking sites in +11 and +18 mutants were mapped to Lys-21 and Lys-19, respectively, residues on the nearby β-strand, based on the identified fragment masses after trypsin digestion (FIG. 34d, FIG. 50).
Crosslinking yield determination of BeLaK-encoded NSa1 variants. To quantify the extent of crosslinking, β-mercaptoethanol (20 mM) was added at a final concentration of 2.58 mM (100 equiv, 3 μL) to a solution of purified NSa1 variants (25 μM, 30 μL) in elution buffer (50 mM Na2HPO4, pH=7.4, 300 mM NaCl, 250 mM imidazole). The mixture was incubated at 37° C. overnight. Afterwards, the mixture was removed from the incubator and allowed to incubate at 25° C. for 1 week.

Cathepsin B = biological target: T1, Cathepsin B (Homo sapiens, UniProt P07858); assay: NSa1 proteolytical stability assay (QTOF-LC/MS); assay type: in vitro ADME
T1 construct: purchased Novus Biologicals
Method: as §1
NSa1 proteolytical stability assay. In a 1.5-mL microcentrifuge tube, TEV-cleaved, purified NSa1 (1.5 μM in 50 mM phosphate, 500 mM NaCl, pH 7.0) was incubated with Cathepsin B (Novus Biologicals; 0.065 μM) at 37° C. […]

| Molecule | percentage of fluorescent cells (HeLa cells; 500 nM) [%] | MFI(R-1) Trial 1 (HeLa cells) | MFI(R-1) Trial 2 (HeLa cells) | MFI(R-1) Trial 3 (HeLa cells) | X-linking yield [1] [%] | higher mean fluorescence intensity than NSa1(+10)-A13BocK treated cells (HeLa cells; 500 nM) [%] | half-life relative to non-crosslinked NSa1(+10)-A13BocK (Cathepsin B; Cathepsin B, 37°C) | half-life (Cathepsin B; NSa1 1.5 μM with Cathepsin B 0.065 μM at 37°C) [min] |
| --- | --- | --- | --- | --- | --- | --- | --- | --- |
| NSa1(+10)-A13BocK: non-crosslinked +10 charged monobody NSa1 encoding BocK at position 13; SEQ ID NO: 50 (protein, BocK non-natural residue at position 13; VARIANT 34 X is 1/2-carboxy-4-aryltriazole lysine or Ne-(tert-butoxycarbonyl) lysine) MGSSHHHHHHSSGTENLYFQGVSSKPTKLRVVRXTPTSLKIKWDAPAKTVDYYVITYGETGRGGYAWQRFEVPGSKRTATIKGLKPGVDYTITVYAGYKGYPTYYSSPISINYRT | 13.6 | 6726.24 | 6507.23 | 6855.84 | – | – | – | – |
| NSa1(+5)-A13BeLaK: supercharged NSa1 monobody encoding BeLaK; SEQ. ID. NO: 6 (protein, BeLaK non-natural residue at position 13; MOD_RES 34 X is N6-(2-Oxoazetidine-1-carbonyl)-L-lysine, supercharged NSa1 monobody encoding BeLaK; ID; NO: 6) MGSSHHHHHHSSGTENLYFQGVSSKPTKLRVVRXTPTSLKISWDAPAVTVDYYVITYGEKGSGGYAWQEFEVPGSKRTATISGLKPGVDYTITVYAGYKGYPTYYSSPISINYRT | – | – | – | – | 43 | – | – | – |
| NSa1(+10)-A13CATK-1: +10 charged monobody NSa1 encoding CATK-1 at Ala-13, crosslinked to Tyr-92; SEQ ID NO: 50 (protein, CATK-1 at Ala13 crosslinked to Tyr92; VARIANT 34 X is 1/2-carboxy-4-aryltriazole lysine or Ne-(tert-butoxycarbonyl) lysine) MGSSHHHHHHSSGTENLYFQGVSSKPTKLRVVRXTPTSLKIKWDAPAKTVDYYVITYGETGRGGYAWQRFEVPGSKRTATIKGLKPGVDYTITVYAGYKGYPTYYSSPISINYRT | 14.8 | 9561.61 | 9020.17 | 9337.41 | – | 40 | three times longer | 126 |
